# Measurements taken from publication PMC12208494, “The zinc metalloprotein MigC impacts cell wall biogenesis through interactions with an essential Mur ligase in Acinetobacter baumannii” (PLOS Pathogens, 2025).
# B1: MigC (A1S_0934) (Acinetobacter baumannii) (protein)
# chain: MKLIAQKTVPTHIISGFLGAGKTTLLQHLLSQKPKDEVWAVLMNEFGQIGVDQQLLPQDQGYAVKELLGGCLCCSSQLPMHIALARLLSEQKPDRLFIEPTGLGHPSQLFDQLTEPHWQNSLAMRALVTVVDGSRLHDTNWVKQNLYEDQLKAAQIVVVSHADTMTFEDEQALVELKEEYQPYQQQWLKTEHGQLELAQIDVPARLTERSIQPLLKLQKQMTEAEVVKEIHQLPYHYVETAQGYMVAGWKFPKRWKFEFYALLDVLCAQQDWLRIKGIFNTDQGWKTFNFNPEQFNYKSGEEGIDNRIEMISQHEHDWLAFETELLACRIEQ
# notes: pre-loaded with 1 equivalent Zn; UniProt ID is the one representing MigC in a homologue alignment and may be from another strain
# B2: MurD (Acinetobacter baumannii ATCC 17978) (protein)
# chain: MLIQRGGLKVVAGLGISGVSAVNFLHEQGYQVAVTDSRPTPPGHDQIPAGVKTSFGQLDQELLLQAEEIILSPGLAPQLPEIQAAIAKGISVVGDIQLLRRATDVPIVAITGSNAKSTVTTLIGLMAKDAGKKVAVGGNLGRPALDLLKDQPELLVLELSSFQLETTSHLNAEVAVVLNMSEDHLDRHGNMLGYHQAKHRIFQGAKKVVFNRDDALSRPLVPDTTPMQSFGLNAPDLNQYGVLRDADGTLWLACGLQRLIKSSDLYIQGMHNVANALACLALGEAIGLPMESMLETLKQFKGLEHRCEYVKTVHDVRYYNDSKGTNVGATLAAIDGLGAAIEVKKGKVALILGGQGKGQDFSPLRSSIEKYAKVVVLIGEDAPVIEQAIQGATKILHAATLKEAVELCQRETQAEDVVLLSPACASFDMFKSYNDRGQQFVACVNSLV
# notes: full length, N-terminal 6xHis tag removed by TEV protease, E. coli BL21(DE3)
# Tests used:
# Format in all cases: biochemical, Acinetobacter baumannii
# [1] = substrate: Nc1ncnc2c1ncn2[C@@H]1O[C@H](COP(=O)(O)OP(=O)(O)OP(=O)(O)O)[C@@H](O)[C@H]1O; experiment: malachite green phosphate release; settings: Zn-bound MigC (1 equivalent Zn), 2 mM MgCl2, 150 mM KCl, pH 7.4, 37 °C
# [2] = substrate: Nc1nc2c(ncn2[C@@H]2O[C@H](COP(=O)(O)OP(=O)(O)OP(=O)(O)O)[C@@H](O)[C@H]2O)c(=O)[nH]1; experiment: malachite green phosphate release; settings: Zn-bound MigC (1 equivalent Zn), 2 mM MgCl2, 150 mM KCl, pH 7.4, 37 °C
# [3] = substrate: Nc1ncnc2c1ncn2[C@@H]1O[C@H](COP(=O)(O)OP(=O)(O)OP(=O)(O)O)[C@@H](O)[C@H]1O; experiment: HPLC of UMAG formation; settings: 200 µM UMA, 1 mM D-glutamate, 2 mM MgCl2, 500 µM GTP, BSA added (no MigC), pH 7.4, 37 °C
Protein,Km [1] [µM],Km [2] [µM],Km [3] [µM]
B1,51.1 ± 12,110 ± 14,
B2,,,149 ± 25
